These results are taken from PMC5923107 (Antimicrobial Agents and Chemotherapy, 2018).

Sequences and labels used below:
B1: TRL848 (antibody, V domains shown)
VH: QVQLLESGGDVVQPGTSLRLSCAASGFSLWTSGMHWVRQAPGKGLEWVAVMSYDETKKYYADSVRGRFSISRDNSRNTLYLQMNSLRVEDTAVYFCAKPRLDYLDYFHAADSWGQGTLVSVSS
VL: DIVLTQPPSVSVAPGQTATITCGGNYIGSKSVNWYQQRPGHAPVLVVYDDSDRPSGIPDRFSGSNSRSTATTATLTISRVEAGDEADYYCQVWETSEDLWVFGGGTKLTVL
notes: also called MAb TRL848
B2: TRL847 (antibody, V domains shown)
VH: QVQLVESGGGLVQPGGSLRLSCVASGFTFSRFSMNWVRQAPGMGLEWVSYISDTGRTIYYADSVKGRFTISRDNDKNTLYLQMKSLRDEDSAFYYCARDPDTPFVRAFDSWGQGVLVTVSS
VL: DIVMTQSPSFLSASVGDRVTITCRTSQVISSYLAWYQQRPGKAPKLLIYAASTLQSGVPSRFSGSGSGTRFSLTISNLQPEDFATYFCQQLTTYPPITFGQGTRLEIK
notes: also called MAb TRL847
B3: TRL854 (antibody, V domains shown)
VH: QVQLVESGAEVKKPGASVRVSCKGSGYTFTAYHMHWVRQAPGQGFEWVGWINPNSGATYYTSTFEGRVTMTRDTSITTAYMELSSLRSDDTAVYYCATDIVVERDASLGGFNSYGMDVWGQGTTVTVSS
VL: DIEMTQSPLSLPVTPGEPASISCRSSQSLLHSNGYNHLAWYLQKPGRSPHLLIYLASTRASGVPDRFSGSGSGTDFTLKISRVEAEDVGIYYCMQSLQTSITFGQGTRLEIK
notes: also called MAb TRL854
B4: TRL849 (antibody, V domains shown)
VH: QVQLVESGPGLVKPSQTLSLTCTVSGGSISNGGYHWSWIRQHPGKGLEWIGNIYYRGSTFYDPSLKSRVTISVDTSKSQFSLKLTSVTAADTAVYYCARMPLANYDLLTGLYIGAFDLWGQGTMVTVSS
VL: DIVLTQSPATLSVSPGERATLSCRASQSVNRNLAWFQQIPGQAPRLLIFDASTRAADIPARFSGGGSGAEFTLTVSSLQPEDFAVYYCQQYDKWPPGFGQGTKVEIK
notes: also called MAb TRL849
B5: TRL845 (antibody, V domains shown)
VH: QVQLVQSGGDLVQPGGSLRLSCAASGFTFSRYSMNWVRQAPGMGLEWVAYISDTSRTIYYADSVKGRFTISRDNAKNSLYLQMKSLRDEDTAVYYCARDPDTPFVRAFDSWGQGTLVTVSS
VL: DIVLTQSPSFLSASVGDRVTITCRASQLISSYFAWYQQKPGKPPKLLIYAASTLQSGVPSRFSGSGSGTQFSLTISSLQPEDFATYYCQQLNSYPPITFGQGTRLEIK
notes: also called MAb TRL845

The first assay has as its target T1, hemagglutinin (HA) of influenza B virus B/Brisbane/60/2008 (Victoria lineage) (Influenza B virus B/Brisbane/60/2008, UniProt C0LT35, strain).
T1 construct: also called B/Brisbane/60/2008 HA; source: bought: Immune Tech
Description: ELISA. The settings on record: both partners purified.
With B1, the binding result is “binds”.
The same measure, in the same setting: with B2 the entry was “binds”.
Take B3: the binding result is recorded as “binds”.
Still for that read-out and setting: with B4 the entry was “binds”; with B5, “binds”.

The next assay addresses T2, hemagglutinin (HA) of influenza B virus B/Malaysia/2506/2004 (Victoria lineage) (Influenza B virus B/Malaysia/2506/2004; …, UniProt C0LT35, strain).
T2 construct: also called B/Malaysia/2506/2004 HA; source: bought: Protein Sciences
Description: ELISA. The settings on record: both partners purified.
B1: the binding result is on record as “binds”.
In the case of B2, the binding result was “binds”.
Same read-out and setting: with B3 the entry was “binds”.
Same read-out and setting: with B4 the entry was “binds”; with B5, “binds”.

The target in a further assay is T3, hemagglutinin (HA) of influenza B virus B/Victoria/2/1987 (Victoria lineage) (Influenza B virus B/Victoria/2/1987, UniProt P22092, strain).
T3 construct: also called B/Victoria/2/1987 HA; source: bought: Immune Tech
Description: ELISA. The conditions noted are these: both partners purified. In general terms: In an ELISA, binding on a coated surface is turned into a signal by an enzyme label.
Take B1: the binding result is recorded as “binds”.
The same measure, in the same setting: under B2 stands “binds”.
Regarding B3, the binding result was “binds”.
Same read-out and setting: with B4 the entry was “binds”.
As for B5, the binding result is “binds”.

The next assay addresses T4, hemagglutinin (HA) of influenza B virus B/Florida/04/2006 (Yamagata lineage) (Influenza B virus B/Florida/4/2006, UniProt E1TVD5, strain).
T4 construct: also called B/Florida/4/2006 HA; HA of B/Florida/04/2006; source: bought: Sino Biological
The assay is described as follows: ELISA. The settings on record: both partners purified.
For B1, the binding result was “binds”.
Still for that read-out and setting: with B2 the entry was “binds”; with B3, “binds”.
